This assay concerns the target SNARE (H3) domain of syntaxin-1a (aa 180–262) (rat, UniProt P32851 180-262). Nature of the assay: assembly of purified monomers and anion-exchange chromatography.

Sequence of SNARE (H3) domain of syntaxin-1a (aa 180–262) (P32851 180-262): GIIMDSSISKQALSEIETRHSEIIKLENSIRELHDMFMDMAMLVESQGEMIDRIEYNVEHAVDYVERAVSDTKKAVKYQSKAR

Consider NVDKVLERDQKLSELDDRADALQAGASQFETSAAKLKRKYWWKNLKMM (domain or fragment) [Syb49–96], for which the binding result is “binds”.

The record behind these values is PMC2819690 (The Journal of Cell Biology, 2010).
